Data set [1] deals with the molecule itself. Kind of data set: native gel or EMSA; native PAGE of the purified proteins; conditions not given. (Mobility shift assays separate free from complexed probe on a gel.)
Data set [2] deals with the molecule itself. As to the kind of experiment: MST; homodimerisation (dimer to monomers); 100 nM Red-NHS-labelled apo-protein titrated with unlabelled apo-protein of the same variant (180 uM-5.5 nM ZnT8cR or 124 uM-3.8 nM ZnT8cW); 10 mM potassium phosphate pH 8, 60 mM NaCl, 20 mM sucrose, 100 uM TCEP, 1 mM EDTA, 0.05% Tween-20; 25 °C; Monolith NT.115.

A word on the stoichiometry N: it is the number of molecules, sites or subunits per partner or assembly. One may read the Kd as a measure of binding affinity in units of concentration. Low readings indicate a tighter complex, high ones a looser complex.

B1: R325 variant of ZnT8 CTD (aa267-369) (domain or fragment, human, UniProt Q8IWU4 267-369, looked up)
chain: LKDFSILLMEGVPKSLNYSGVKELILAVDGVLSVHSLHIWSLTMNQVILSAHVATAASRDSQVVRREIAKALSKSFTMHSLTIQMESPVDQDPDCLFCEDPCD
modifications: amine-reactive Red-NHS dye (Monolith NT.115 labelling kit) on the labelled copy in MST; the titrated copy unlabelled
notes: human zinc transporter ZnT8 (SLC30A8), C-terminal cytosolic domain, residues 267-369, Arg at position 325; numbers count on the full-length human ZnT8 long isoform (Ensembl transcript SLC30A8-002); A TEV protease cleavage site stands between the N-terminal hexahistidine tag and the domain (vector pET6H); Calculated monomer mass with tag and TEV site 13.3 kDa; also called ZnT8cR; apo-ZnT8cR; …
In the case of B1, in data set [1], the “stoichiometry N” value is 2. Binding in data set [2] was characterised by a dissociation constant (Kd) of 4.3 µM.

B2: W325 variant of ZnT8 CTD (aa267-369) (domain or fragment, human, UniProt Q8IWU4 267-369, looked up)
chain: LKDFSILLMEGVPKSLNYSGVKELILAVDGVLSVHSLHIWSLTMNQVILSAHVATAASWDSQVVRREIAKALSKSFTMHSLTIQMESPVDQDPDCLFCEDPCD
modifications: amine-reactive Red-NHS dye (Monolith NT.115 labelling kit) on the labelled copy in MST; the titrated copy unlabelled
notes: numbers count on the full-length human ZnT8 long isoform (Ensembl transcript SLC30A8-002); A TEV protease cleavage site stands between the N-terminal hexahistidine tag and the domain (vector pET6H); also called ZnT8cW; apo-ZnT8cW; source: apo form made with TCEP and EDTA; not shown: His6, N-terminal, kept
As for B2, the “stoichiometry N” value in data set [1] came out at 2. This protein also registered a Kd in data set [2] of 1.8 µM.
